The results in this text go back to patent CN114106162A (ANYUAN MEDICINE SCIENCE AND TECH SHANGHAI LIMITED COMPANY, dated 2022).

Assay [1] concerns the target 刺突S蛋白-鼠Fc融合蛋白(S-mFc) (SARS-CoV-2; mouse, UniProt P0DTC2 14-1213). Put plainly: FACS competition: antibody blocks binding of S-mFc to 293T-ACE2 cells.
For assay [2], the target named is T1, SARS-CoV-2 S1蛋白 (ACRO Biosystems) (SARS-CoV-2, UniProt P0DTC2 16-685).
T1 construct: domain: S1
The experiment in a line: competition ELISA, S1 coated, HRP-hACE2-Fc as competitor.

B1: 鼠源单克隆抗体S1B-82-5 (antibody, V domains shown)
VH: EVILVESGGGLVKPGGSLKLSCAASGFTFSSYAMSWIRQTPEKRLEWGATINSGGNFIYYPDSVKGRFTISRDNAKNTLYLQMSSLRSEDTAMYFCGRHSGNYVDSAMDYWGQGTSVTVSS
VL: QIVLTQSPAIMSASLGEEITLTCSASSSVSDMHWYQQKSGSSPKLLIYSTSNLASGVPSRFSGSGSGTFYSLTVSSVEAEDAADYYCHQWSTWTFGGGTKLEIK
notes: also called 鼠源抗体S1B-82-5; 鼠抗S1B-82-5
The molecule B1 gave an IC50 in assay [1] of 0.016 µg/mL.

B2: 人源化抗体hS1B-82-5 (antibody, V domains shown)
VH: EVILSESGGGSVKPGGSLRLSCAASGFTFSSYAMSWIRQAPGKRLEWGSTINSGGNFIYYPDSVKGRFTISRDNAKNSLYLQMNSLRAEDTAVYFCGRHSGNYVDSAMDYWGQGTTVTVSS
VL: EIVLTQSPATLSVSPGERATLSCSASSSVSDMHWYQQKPGKSPKLLIYSTSNLASGVPSRFSGSGSGTEYTLTISSLQPEDVATYYCHQWSTWTFGGGTKVEIKR
notes: also called 抗SARS-CoV-2 S1人源化抗体; 人源化单克隆抗体hS1B-82-5
In assay [2], B2 returned an EC50 of 0.166 µg/mL. In assay [1], this molecule returned an IC50 of 0.0193 µg/mL.
